Source: US20250283065A1, “TRUNCATED POLYPEPTIDES HAVING PROTEIN LIGASE ACTIVITY AND METHODS OF PRODUCTION THEREOF” (NANYANG TECHNOLOGICAL UNIVERSITY, priority 2022, published 2025)

Key:
[1] = tested on: OaAEP1b-C247A-Δ351; test: Active site titration by FRET ligation assay with covalent inhibitor; assay type: biochemical, Oldenlandia affinis; settings: 1 hour incubation with Ac-YVAD-cmk, enzyme 280 nM
Protocol: Active site titration: The procedure described in reference was followed. The enzyme preparation was diluted to a concentration of 280 nM using a buffer containing 20 mM sodium phosphate at pH 6.5, 5 mM 2-Mercaptoethanol. Solutions containing serial twofold dilution of inhibitor YVAD-cmk were prepared in a black microtiter plate (Greiner Bio-One) using buffer as diluent. The enzyme was subsequently added to the wells containing the inhibitor to a final volume of 50 μL. The plate was incubated for 1 hour at room temperature before adding FRET peptides (PIE {EDANS} YNAL (SEQ ID NO:18) and GIK {DABSYL} SIP (SEQ ID NO: 19)), which were mixed at a molar ratio of 1:3 giving a final enzyme: substrate molar ratio of 1:200. The EDANS fluorescence signal was measured with an excitation wavelength of 336 nm and an emission wavelength of 490 nm. Relative fluorescence units (RFU) of quenched EDANS signal were plotted against time. The value of the initial velocity (Vi) was determined from the slope of the RFU (t) curve. The measured value of Vi was subsequently normalized by dividing with the initial rate obtained in the absence of inhibitor (control V0). The calculated Vi/V0 ratio was plotted against inhibitor concentrations, generating an inhibition curve. […]

[2] = tested on: linear NH2-GLPVSTKPVATRNAL-COOH peptide substrate; test: Peptide cyclization assay (MALDI-TOF MS); assay type: biochemical; settings: 37° C., after twelve minutes of reaction time
Target sequence (as listed by the source): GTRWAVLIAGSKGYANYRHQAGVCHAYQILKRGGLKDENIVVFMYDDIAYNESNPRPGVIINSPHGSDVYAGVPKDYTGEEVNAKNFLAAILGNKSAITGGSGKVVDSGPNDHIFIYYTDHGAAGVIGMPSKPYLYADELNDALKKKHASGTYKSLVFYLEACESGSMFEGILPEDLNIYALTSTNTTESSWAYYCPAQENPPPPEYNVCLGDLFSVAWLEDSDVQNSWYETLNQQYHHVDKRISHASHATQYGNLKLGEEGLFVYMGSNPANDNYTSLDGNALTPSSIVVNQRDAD
Protocol: Peptide cyclization assay: The peptide used for cyclization assay was purchased commercially from GenScript, NH2-GLPVSTKPVATRNAL-COOH (SEQ ID NO:17). Cyclization assays were performed in 50 μl reaction mixtures containing 20 mM phosphate buffer, pH 6.5, ligases (40 nM) and peptide substrates (20 μM). Reaction was performed at 37° C., for 1 hour. The cyclization product was analyzed by MALDI-TOF MS (ABI 4800 MALDI TOF/TOF).
To evaluate the cyclization activity of the purified OaAEP1b-C247A-Δ351, the enzyme was tested against a linear NH2-GLPVSTKPVATRNAL-COOH (SEQ ID NO:17) peptide substrate (labelled “LS”) (FIG. 6A). The cyclization reaction was performed at 37° C., and samples were collected every two minutes. MALDI-TOF MS was subsequently utilized to detect a cyclized product (labelled “CP”). Successful cyclization carried out by the active ligase of the LS with a mass of 1524 Da would result in CP with a mass of 1321 Da (FIG. 6A). After twelve minutes of reaction time, OaAEP1b-C247A-Δ351 had converted the majority of the linear substrate to the circularized product. No LS peak could be detected compared to a high CP peak detected in the MALDI-TOF mass spectra of the reaction mixture.

[3] = Refolding from E. coli inclusion bodies (urea solubilization, dialysis); assay type: physicochemical; settings: urea solubilization followed by refolding
Protocol: Refolding and purification of constitutively active OaAEP1b-C247A-4351 using dialysis method: With all steps performed at 4° C., protein purification was achieved by resuspending thawed pellets in 30 mL of lysis buffer (100 mM Bis-Tris, pH 6.5, 500 mM NaCl, 10% (v/v) glycerol), sonicating the pellets followed by clearing the lysates by centrifugation at 58,000 g for 45 min. The insoluble fraction was resolubilized in 10 mL of resolubilizing buffer (50 mM Bis-Tris, pH 6.5, 150 mM NaCl, 1 mM EDTA, 50 mM Glycine, 8 M urea) overnight, with agitation. The concentration of denatured protein was determined using nanodrop and diluted to ˜2 mg mL-1 with buffer 1 (50 mM Bis-Tris, pH 6.5, 150 mM NaCl, 500 mM L-Arginine, 1 M urea, 0.25 mM L-Glutathione oxidized, 2.5 mM L-Glutathione reduced). The diluted denatured protein was dialyzed against buffer 2 (50 mM Bis-Tris, pH 6.5, 150 mM NaCl, 200 mM L-Arginine, 0.125 mM L-Glutathione oxidized, 1.25 mM L-Glutathione reduced) for 8 hr, followed by two buffer exchanges with buffer 3 (20 mM Bis-Tris, pH 6.5, 150 mM NaCl), for a duration of 8 hr for each buffer exchange. The refolded proteins were purified by affinity chromatography (HisTrap column, Cytiva), followed by size exclusion chromatography (HiLoad 16/600 Superdex 200, Cytiva). The proteins eluted as monomers during size exclusion purification. […]

B1: OaAEP1b-C247A-Δ351: truncated OaAEP1b-C247A construct, residues 352-474 deleted, D351 as C-terminus; constitutively active peptide asparaginyl ligase (protein)
chain: GTRWAVLIAGSKGYANYRHQAGVCHAYQILKRGGLKDENIVVFMYDDIAYNESNPRPGVIINSPHGSDVYAGVPKDYTGEEVNAKNFLAAILGNKSAITGGSGKVVDSGPNDHIFIYYTDHGAAGVIGMPSKPYLYADELNDALKKKHASGTYKSLVFYLEACESGSMFEGILPEDLNIYALTSTNTTESSWCYYCPAQENPPPPEYNVCLGDLFSVAWLEDSDVQNSWYETLNQQYHHVDKRISHASHATQYGNLKLGEEGLFVYMGSNPANDNYTSLDGNALTPSSIVVNQRDAD
[1]
  fraction of the measured protein concentration that is active and amenable to complete inhibition: about 53%
[2]
  cyclization of linear substrate to cyclized product: complete cyclization reaction
[3]
  behaviour during refolding procedure: could be refolded
